Tests used:
Conditions in all cases: tags: NLS, HA tag
[1] = molecular target: Construct 30 eTF (eZF z13-VPR) (synthetic construct); experiment: cell_activity; SCN1A mRNA by RNAseq in iCell GABA neurons vs CBA-EGFP; SCN1A-selective among 40 neighbouring genes
Protocol: iCell GABA neurons (Cellular Dynamics) were plated in a 6-well plate (˜1E6 cells/well) and maintained per manufacturer's recommended protocol. 72h following plating, recombinant AAV (serotype AAV-DJ) expressing EGFP or activator (Construct 30), which comprises a zinc finger DBD fused to a VPR TAD driven by a CBA promoter) under the control of a CBA promoter was added to the culture media at approximately 2E11 genome copies/well.
One week following infection, RNA was isolated from cultured cells (Qiagen RNeasy Mini kit), and DNase treated. RNAseq libraries were prepared from the recovered RNA, using the TruSeq Stranded mRNA library kit (Illumina) and sequenced on an Illumina NextSeq (2×75 cycle paired end sequencing). Sequencing reads were aligned to human genome (RNASTAR) and differential expression analysis was performed with DESeq2. Data are presented as fold change with respect to control (AAVDJ-CBA-EGFP) samples (see FIG. 4). Results are shown in TABLE 14 and FIG. 4 illustrates the relative expression of endogenous SCN1A and the 40 nearest neighboring gene transcripts presented as fold changes relative to the control condition. Construct 30, as described in TABLE 1, was able to specifically increase expression of the SCN1A gene, or the Nav1.1 protein, as compared to the other genes examined. […]

[2] = molecular target: Construct 3 eTF (eZF z13-VP64) (synthetic construct); experiment: cell_activity; endogenous SCN1A mRNA in HEK293 vs EGFP-KASH; p=0.149
Protocol: (§1) HEK293 cells were cultured per standard methods, and transfected (FugeneHD, Promega) with 3 ug plasmid carrying an engineered transcription factor or control construct per well of a 6-well plate. 48h following transfection, cells were collected and RNA was isolated (Qiagen RNeasy Mini kit), and DNase treated. RNA (3 ug) was reverse transcribed using OligoDT primers (Superscript IV, Invitrogen). cDNA samples were analyzed by qPCR using Phusion Polymerase (New England Biolabs) and SYBR Green I: (30s at 98° C., 40×[10 sec at 98° C., 15 sec at 66° C., 15 sec at 72° C.]). Primers against SCN1A (5′-[…]-3′ (SEQ ID NO: 185); 5′-[…]-3′ (SEQ ID NO: 186)) were used to quantify levels of endogenous SCN1A transcript, and relative levels of SCN1A expression were determined by the delta-delta Ct method with GAPDH as a reference gene (5′-[…]′-3′ (SEQ ID NO: 187); 5′-[…]-3′ (SEQ ID NO: 188)). Data are presented as fold changes relative to the control condition.

[3] = molecular target: Construct 29 eTF (eZF z14-VP64) (synthetic construct); experiment: cell_activity; endogenous SCN1A mRNA in HEK293 vs EGFP-KASH; p=0.164
Protocol: as §1

[4] = molecular target: Construct 4 eTF (eZF z1-VP64) (synthetic construct); experiment: cell_activity; endogenous SCN1A mRNA in HEK293 vs EGFP-KASH; p=0.0097; also about 20-30% Scn1a upregulation in mouse hippocampus
Protocol: as §1

Construct 30 eTF (eZF z13-VPR) (synthetic construct), sequence (chain, as listed by the source): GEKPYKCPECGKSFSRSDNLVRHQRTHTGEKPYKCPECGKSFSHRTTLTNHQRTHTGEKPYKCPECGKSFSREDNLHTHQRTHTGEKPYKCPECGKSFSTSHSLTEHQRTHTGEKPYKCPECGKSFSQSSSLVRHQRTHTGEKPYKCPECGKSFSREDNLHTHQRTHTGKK

B1: z13 target site (dsDNA)
DNA 1: TAGGTACCATAGAGTGAG
DNA 2: CTCACTCTATGGTACCTA
What does the source list for B1?
activity [1]: 63 fold; activity [2]: 25.5 fold

B2: z14 target site (dsDNA)
DNA 1: GAGGATACTGCAGAGGTC
DNA 2: GACCTCTGCAGTATCCTC
How did the activity [3] turn out when B2 was run?
The activity was 8.68 fold.

B3: z1 target site (dsDNA)
DNA 1: CTAGGTCAAGTGTAGGAG
DNA 2: CTCCTACACTTGACCTAG
For B3, which activity [4] is on record?
Its activity is 5.12 fold.

Reference: patent US20220136009, “COMPOSITIONS AND METHODS FOR SELECTIVE GENE REGULATION” (Encoded Therapeutics, Inc., published 2022)
